Measured values published in patent US5254534A, “Adjuvant for cancer immunotherapy” (Green Cross Corporation, priority 1988, dated 1993).
Read-outs that look alike come from different tables or passages of the source.

Tests used:
mouse marrow cells [1] = assay: Colony stimulating activity: colony formation of mouse marrow cells on soft agar; type: cell-based; conditions: for specific activity: purified glycoprotein/CSF of the examples
Experimental: In biological activity measurement, the colony formation of mouse marrow cells in vitro was used as an activity measurement parameter. […] Thereafter, cell aggregates consisting of 50 or more cells were counted as colonies under an invert microscope.
One colony formed is taken as one unit.
Thus, the CSF sample was admixed with 1 ml of McCoy's 5A medium containing 0.3% agar, 20% fetal calf serum (FCS) and 1×10^5 mouse marrow cells. […] Thereafter, cell aggregates consisting of 50 or more cells were judged as colonies and counted. The colony stimulating activity was expressed in units. One unit was defined as the quantity of CSF required for the formation of one colony. The specific activity was expressed in terms of the number of colonies (units) formed per milligram of the CSF protein. […] The colonies formed were stained with hematoxylin-eosin for morphological classification.

TNF activity = assay: Induction of TNF activity by mixed culture of monocytes and PICIBANIL (OK-432) plus CSF; cytocidal activity against L929 cells (crystal violet); type: cell-based; conditions: conclusions from Table 2
Experimental: (3) Incubation was performed at 37° C. for 72 hours in a 5% CO2 atmosphere.
(4) The supernatant was assayed for TNF activity at timed intervals. The TNF activity was determined by measuring the cytocidal activity against L929 cells in terms of the absorbance of crystal violet.

marrow cells = conditions: cited from earlier work
Isoelectric point = type: physicochemical; conditions: polyacrylamide gel isoelectric focusing and sucrose density gradient isoelectric focusing
Text: The isoelectric point (pI) as determined by the polyacrylamide gel isoelectric focusing and sucrose density gradient isoelectric focusing techniques is 3.1-3.7.

[2] = Thermal stability of the CSF (60°C, then colony stimulating activity); type: physicochemical; conditions: 1 μg/ml, dilute buffer pH 7.0, 60°±0.5° C., 60 minutes
Experimental: The CSF was dissolved in a dilute buffer (pH 7.0) to a concentration of 1 μg/ml, and the solution was heated at 60°±0.5° C. for 60 minutes and then assayed for colony stimulating activity (to be mentioned later herein).

[3] = cited from earlier work
human marrow cells = conditions: cited from earlier work
[4] = 1% (by weight) aqueous solution, 60° C. ±0.5° C., 30 minutes; cited from earlier work
[5] = 1% (by weight) aqueous solution; cited from earlier work
[6] = 60±0.5° C., 60 minutes; CSF (iv); cited from earlier work
[7] = polyacrylamide gel isoelectric focusing and sucrose density gradient isoelectric focusing; CSF (iv); cited from earlier work
mouse marrow cells [8] = conditions: CSF (iv), typical production method; cited from earlier work
[9] = system: mammalian monocyte-macrophage series cells; conditions: cited from earlier work

B1: Example 4: human urine-derived CSF isolated and purified in the same manner as in Example 3 with TSKG-3,000SW and phenyl-5pw (protein, UniProt P09603 33-554, looked up)
Macrophage colony-stimulating …: EEVSEYCSHMIGSGHLQSLQRLIDSQMETSCQITFEFVDQEQLKDPVCYLKKAFLLVQDIMEDTMRFRDNTPNAIAIVQLQELSLRLKSCFTKDYEEHDKACVRTFYETPLQLLEKVKNVFNETKNLLDKDWNIFSKNCNNSFAECSSQDVVTKPDCNCLYPKAIPSSDPASVSPHQPLAPSMAPVAGLTWEDSEGTEGSSLLPGEQPLHTVDPGSAKQRPPRSTCQSFEPPETPVVKDSTIGGSPQPRPSVGAFNPGMEDILDSAMGTNWVPEEASGEASEIPVPQGTELSPSRPGGGSMQTEPARPSNFLSASSPLPASAKGQQPADVTGTALPRVGPVRPTGQDWNHTPQKTDHPSALLRDPPEPGSPRISSLRPQGLSNPSTLSAQPQLSRSHSSGSVLPLGELEGRRSTRDRRSPAEPEGGPASEGAARPLPRFNSVPLTDTGHERQSEGSFSPQLQESVFHLLVPSVILVLLAVGGLLFYRWRRRSHQEPQRADSPLEQPEGSPLTQDDRQVELPV
specific activity (mouse marrow cells [1]): 1.5×10^8 units/mg protein | TNF activity (in words) (TNF activity): does not cause TNF activity expression

B2: CSF (ii): CSF disclosed in JP-A-63-54398; glycoprotein, molecular weight about 70,000 by gel filtration (protein, UniProt P09603 33-554, looked up)
Macrophage colony-stimulating …: B1 Macrophage colony-stimulating …
differentiation and proliferation of granulocytic series stem cells (marrow cells): promotes the differentiation and proliferation of granulocytic series stem cells

B3: Example 3: purified CSF from human urine, homodimer of 70,000-90,000 daltons (protein, UniProt P09603 33-554, looked up)
Macrophage colony-stimulating …: B1 Macrophage colony-stimulating …
isoelectric point (pI) (Isoelectric point): 3.1-3.7 | proportion of colonies that were monocyte-macrophage colonies (mouse marrow cells [1]; hematoxylin-eosin staining, 7 days at 37° C.): at least 95% | specific activity (mouse marrow cells [1]): 1.4×10^8 units/mg protein | Thermal stability (colony stimulating activity decrease) [2]: Almost no activity decrease was observed

B4: CSF (i): CSF disclosed in U.S. Pat. No. 4,275,056; glycoprotein, molecular weight 75,000-90,000 by gel filtration (protein, UniProt P09603 33-554, looked up)
Macrophage colony-stimulating …: B1 Macrophage colony-stimulating …
Solubility in chloroform ([3]; chloroform): slightly soluble | Solubility in ethyl alcohol and acetone ([3]; ethyl alcohol and acetone): insoluble | Solubility in water ([3]; water): soluble | differentiation and proliferation of granulocytes (human marrow cells): promotes the differentiation and proliferation of granulocytes | Temperature stability [4]: loses its ability to promote the differentiation and proliferation of human granulocytes | pH [5]: 5.0-6.0

B5: 2: heat-treated glycoprotein (CSF) from fresh urine collected from healthy humans (protein, UniProt P09603 33-554, looked up)
Macrophage colony-stimulating …: B1 Macrophage colony-stimulating …
modifications: heat-treated
notes: heat-treated glycoprotein (CSF) from fresh urine collected from healthy humans
specific activity (mouse marrow cells [1]): 1×10^7 units/mg protein

B6: CSF (iv): CSF disclosed in JP-A-63-250400; glycoprotein, homodimer composed of two identical subunits (protein, UniProt P09603 33-554, looked up)
Macrophage colony-stimulating …: B1 Macrophage colony-stimulating …
Thermal stability (biological activity) [6]: biological activity is not lost | isoelectric point (pI) [7]: 3.1-3.7 | specific activity (mouse marrow cells [8]): 100,000-20,000,000 units/mg protein | colony stimulating activity [9]: has colony stimulating activity
